± gives the uncertainty stated by the source.
Experiment: self-splicing fitness, log relative to wild type (ln ratio); higher = more splicing; Tetrahymena group I intron in knt gene, E. coli kanamycin selection, DiMSum; sequences stand for … in CUCUCU…GGAGGGAAAAGUUAUCAGGCAUGCACCUGGUAGCUAGUCUUUAAACCAAUAGAUUGCAUCGGUUUAAAAGGCAAGACCGUCAAAUUGCGGGAAAGGGGUCAACAGCCGUUCAGUACCAAGUCUCAGGGGAAACUUUGAGAUGGCCUUGCAAAGGGUAUGGUAAUAAGCUGACGGACAUGGUCCUAACCACGCAGCCAAGUCCUAAGUCAACAGAUCUUCUGUUGAUAUGGAUGCAGUUCACAGACUAAAUGUCGGUCGGGGAAGAUGUAUUCUUCUCAUAAGAUAUAGUCGGACCUCUCCUUAAUGGGAGCUAGCGGAUGAAGUGAUGCAACACUGGAGCCGCUGGGAACUAAUUUGUAUGCGAAAGUAUAUUGAUUAGUUUUGGAGUACUCGUGGUCG
Outline: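 DiMSum derived fitness as the error-weighted combination of fold changes across replicates, kanamycin versus no kanamycin, normalised to wild type. E. coli BL21(DE3) held the library, which randomised all eight P1ex-region intron nucleotides within the knt kanamycin-resistance gene on pET-22b(+). Six replicate transformations grew overnight at 37°C or 30°C on LB agar with or without 25 μg/mL kanamycin, also containing 100 μg/mL carbenicillin, 50 μM IPTG and 0.2% rhamnose, and pooled colonies were amplicon-sequenced on an Illumina HiSeq 2500.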

Sequence | self-splicing fitness (ln) (30 °C) | self-splicing fitness (ln) (37 °C)
GGUUAGCAAUAUUACGGGUG | -1.7 ± 0.1 | -1.08 ± 0.12
AUGGAGCAAUAUUACGGUUA |  | -2.16 ± 0.34
ACGUAGCAAUAUUACGUCUC | -2.84 ± 0.19 | -3.13 ± 0.32
GCUUAGCAAUAUUACGCUCU | -0.864 ± 0.12 | -0.504 ± 0.12
AACUAGCAAUAUUACGAUCC | 0.0588 ± 0.16 | 0.358 ± 0.19
UGUAAGCAAUAUUACGAGAU | -3.71 ± 0.3 | -3.14 ± 0.37
UCAUAGCAAUAUUACGAAGU | -3.43 ± 0.16 | -3.51 ± 0.39
AUUUAGCAAUAUUACGGUGC | -4.12 ± 0.46 | -1.55 ± 0.23
CAGAAGCAAUAUUACGCUUU | -2.99 ± 0.17 | -3.59 ± 0.26
UGUUAGCAAUAUUACGCUUC |  | -1.5 ± 0.48
GUGCAGCAAUAUUACGCUGG | -2.41 ± 0.12 | -1.09 ± 0.13
CAUUAGCAAUAUUACGCGCG | 0.0331 ± 0.12 | 0.0206 ± 0.13
CGAGAGCAAUAUUACGACCU | -0.7 ± 0.21 | -0.635 ± 0.41
CAACAGCAAUAUUACGGAAG | -0.947 ± 0.045 | -0.607 ± 0.061
UGAGAGCAAUAUUACGUCAA | -3.55 ± 0.29 | -2.89 ± 0.3
UUUCAGCAAUAUUACGUCGU | -3.77 ± 0.17 | -1.93 ± 0.11
CGAUAGCAAUAUUACGUAGA | -3.31 ± 0.17 | -1.3 ± 0.13

Sequence | self-splicing fitness (ln) (30 °C) | self-splicing fitness (ln) (37 °C)
UUCUAGCAAUAUUACGUCGA | -1.02 ± 0.13 | -0.474 ± 0.15
UAAAAGCAAUAUUACGUCGC | -3.18 ± 0.24 | -2.44 ± 0.36
CAUGAGCAAUAUUACGUGUC | -2.98 ± 0.17 | -1.82 ± 0.22
ACGUAGCAAUAUUACGCAUU | -2.8 ± 0.17 | -0.657 ± 0.11
AAUCAGCAAUAUUACGAUAC | -0.844 ± 0.081 | -0.307 ± 0.11
GCAAAGCAAUAUUACGUAAU | -1.23 ± 0.061 | -0.867 ± 0.084
GGCUAGCAAUAUUACGUGCC | -2.22 ± 0.25 | 
AGCAAGCAAUAUUACGGGUC | -2.05 ± 0.22 | -1.82 ± 0.21
GCUAAGCAAUAUUACGUAUG | -2.2 ± 0.1 | -1.12 ± 0.14
GAUUAGCAAUAUUACGUAGG | -3.05 ± 0.16 | -1.48 ± 0.15
CAUAAGCAAUAUUACGACAU | -3.64 ± 0.024 | -2.45 ± 0.037
AAUUAGCAAUAUUACGCCGG | -2.62 ± 0.34 | -0.87 ± 0.4
UUUCAGCAAUAUUACGAAGU | -1.82 ± 0.22 | 0.335 ± 0.25
CUCUAGCAAUAUUACGACAG | -1.95 ± 0.14 | -0.569 ± 0.13
CGAAAGCAAUAUUACGGAGG | -0.982 ± 0.097 | -1.45 ± 0.14
CGUCAGCAAUAUUACGAACA | -0.807 ± 0.078 | 0.843 ± 0.12
CAAUAGCAAUAUUACGAAUA | -2.97 ± 0.39 | -3.26 ± 0.32
